In one experiment the target is T1, chimeric GIPR (Homo sapiens, UniProt P48546).
T1 construct: ID; NOs; expressed in transfected cells
The experiment can be described thus: BRET assay, specificity of the response of the chimeric GIPR (stable cell line, FP-Gγ9). It is filed as cell-based. As to conditions: increasing concentrations of ligand. (In BRET a luciferase serves as donor, and the signal depends on an acceptor being close.)

A further experiment has as its target T2, chimeric M4R (RGLG-2) (Homo sapiens, UniProt P08173).
T2 construct: ID; NOs; expressed in transfected cells
In words: BRET assay of the invention, cells co-expressing chimeric M4R (RGLG-2) and FP-Gγ9. The note with it: for activation of the chimeric M4R (BRET): increasing concentrations of ligand; for Invention assay % stim / Invention assay % enh / Invention assay % inh: activity @ 30uM or 30 ug/ml, normalized to maximal effect of the orthosteric agonist; for Invention assay % stim: compound tested alone; for Invention assay % enh: in presence of EC20 value of Ach; for Invention assay % inh: in presence of EC80 of Ach. The class given is cell-based. The protocol: The same cells as described for FIG. 10 A were used. […] The decrease of the signal below baseline in the PTX-treated condition confirms a constitutive activity that has been described for the M4R. […]
A typical experiment has the following sequence.
(§1) The assay of the present invention was compared with a state of the art calcium based assay. […] In calcium-based assay, a calcium flux is measured in cells co-expressing recombinant M4R and modified Gαq. In the assay in accordance with the present invention, BRET in measured in cells co-expressing a chimeric M4R according to RGLG-2 (construct and cell-line from FIG. 2C, Table 6) and FP-Gγ9 (as described in FIG. 10A). The data represent mean values and they are normalized to the maximal effect of the orthosteric agonist after the subtraction of the basal values.

For experiment [1], the system named is receptors endogenously expressed in non-transfected HEK cells. The experiment can be described thus: cAMP accumulation in non-transfected HEK cells. The class given is cell-based, human. As to conditions: increasing concentrations of ligand. The source says:
These ligands are the following: NECA (empty inverted triangles), Corticotropin releasing factor (CRF) (empty diamonds), calcitonin (full circles), isoproterenol (full triangles), UTP (full inverted triangles) and carbachol (full squares). […]
Background: Cyclic AMP is a second messenger, typically raised through Gs and lowered through Gi signalling.

The target in the next experiment is T3, M4R (Homo sapiens, UniProt P08173).
T3 construct: expressed in transfected cells
T3 sequence (P08173 1-479): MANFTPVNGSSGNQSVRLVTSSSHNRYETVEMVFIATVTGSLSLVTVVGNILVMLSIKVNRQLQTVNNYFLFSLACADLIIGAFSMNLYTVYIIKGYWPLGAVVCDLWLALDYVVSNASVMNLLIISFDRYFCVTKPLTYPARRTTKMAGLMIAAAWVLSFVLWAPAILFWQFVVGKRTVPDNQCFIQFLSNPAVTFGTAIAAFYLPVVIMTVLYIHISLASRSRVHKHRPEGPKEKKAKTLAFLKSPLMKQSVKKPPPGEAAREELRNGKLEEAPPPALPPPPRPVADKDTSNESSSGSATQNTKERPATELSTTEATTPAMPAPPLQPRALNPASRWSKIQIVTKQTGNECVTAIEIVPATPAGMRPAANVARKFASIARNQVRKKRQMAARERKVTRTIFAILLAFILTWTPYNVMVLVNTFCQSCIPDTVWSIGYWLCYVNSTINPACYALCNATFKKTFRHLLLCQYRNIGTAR
The experiment can be described thus: Calcium-based assay, calcium flux in cells co-expressing recombinant M4R and modified Gαq. As to conditions: activity @ 30uM or 30 ug/ml, normalized to maximal effect of the orthosteric agonist; for Calcium-based assay % stim: compound tested alone; for Calcium-based assay % enh: in presence of EC20 value of Ach; for Calcium-based assay % inh: in presence of EC80 of Ach. The class given is cell-based. The protocol: as §1

Experiment [2] deals with human GIPR-Renilla luciferase-Gαs long fusion protein (type RLG) (human). In words: cell-based or functional assay.
Sequence of human GIPR-Renilla luciferase-Gαs long fusion protein (type RLG) (human) (chain, as listed by the source limits assumed): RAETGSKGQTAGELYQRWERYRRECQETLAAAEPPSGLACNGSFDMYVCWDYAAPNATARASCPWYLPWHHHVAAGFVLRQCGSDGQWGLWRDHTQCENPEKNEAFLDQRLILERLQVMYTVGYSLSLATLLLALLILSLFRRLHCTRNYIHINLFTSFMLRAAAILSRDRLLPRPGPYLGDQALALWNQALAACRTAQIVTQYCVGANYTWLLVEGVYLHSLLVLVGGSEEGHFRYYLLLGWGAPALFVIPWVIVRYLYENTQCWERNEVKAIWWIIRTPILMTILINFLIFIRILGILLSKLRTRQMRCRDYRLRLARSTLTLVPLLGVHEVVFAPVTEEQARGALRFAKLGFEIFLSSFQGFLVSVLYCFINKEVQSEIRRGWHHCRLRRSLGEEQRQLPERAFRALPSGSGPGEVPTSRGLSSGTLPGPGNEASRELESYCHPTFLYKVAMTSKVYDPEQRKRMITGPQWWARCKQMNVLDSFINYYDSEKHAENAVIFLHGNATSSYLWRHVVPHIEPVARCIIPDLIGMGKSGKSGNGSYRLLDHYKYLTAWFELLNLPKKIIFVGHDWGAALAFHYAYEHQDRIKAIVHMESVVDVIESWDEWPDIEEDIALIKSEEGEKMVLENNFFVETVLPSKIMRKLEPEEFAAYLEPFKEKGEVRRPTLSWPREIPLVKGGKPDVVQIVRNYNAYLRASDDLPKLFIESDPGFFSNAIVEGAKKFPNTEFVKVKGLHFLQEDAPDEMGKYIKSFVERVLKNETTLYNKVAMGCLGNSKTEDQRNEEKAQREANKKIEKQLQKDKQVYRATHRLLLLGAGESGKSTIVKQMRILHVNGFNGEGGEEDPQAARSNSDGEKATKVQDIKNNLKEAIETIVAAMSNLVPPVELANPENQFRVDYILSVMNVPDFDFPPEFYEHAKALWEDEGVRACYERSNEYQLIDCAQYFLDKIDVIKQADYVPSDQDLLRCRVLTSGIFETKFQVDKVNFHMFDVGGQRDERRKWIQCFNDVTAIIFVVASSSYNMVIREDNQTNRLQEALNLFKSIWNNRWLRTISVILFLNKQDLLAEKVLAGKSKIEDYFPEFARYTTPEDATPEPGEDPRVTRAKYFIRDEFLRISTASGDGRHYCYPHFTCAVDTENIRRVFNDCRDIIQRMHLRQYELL
Experiment [3] deals with human GLP-1R-Renilla luciferase-Gαs long fusion protein (type RLG) (human). In words: cell-based or functional assay.
Sequence of human GLP-1R-Renilla luciferase-Gαs long fusion protein (type RLG) (human) (chain, as listed by the source limits assumed): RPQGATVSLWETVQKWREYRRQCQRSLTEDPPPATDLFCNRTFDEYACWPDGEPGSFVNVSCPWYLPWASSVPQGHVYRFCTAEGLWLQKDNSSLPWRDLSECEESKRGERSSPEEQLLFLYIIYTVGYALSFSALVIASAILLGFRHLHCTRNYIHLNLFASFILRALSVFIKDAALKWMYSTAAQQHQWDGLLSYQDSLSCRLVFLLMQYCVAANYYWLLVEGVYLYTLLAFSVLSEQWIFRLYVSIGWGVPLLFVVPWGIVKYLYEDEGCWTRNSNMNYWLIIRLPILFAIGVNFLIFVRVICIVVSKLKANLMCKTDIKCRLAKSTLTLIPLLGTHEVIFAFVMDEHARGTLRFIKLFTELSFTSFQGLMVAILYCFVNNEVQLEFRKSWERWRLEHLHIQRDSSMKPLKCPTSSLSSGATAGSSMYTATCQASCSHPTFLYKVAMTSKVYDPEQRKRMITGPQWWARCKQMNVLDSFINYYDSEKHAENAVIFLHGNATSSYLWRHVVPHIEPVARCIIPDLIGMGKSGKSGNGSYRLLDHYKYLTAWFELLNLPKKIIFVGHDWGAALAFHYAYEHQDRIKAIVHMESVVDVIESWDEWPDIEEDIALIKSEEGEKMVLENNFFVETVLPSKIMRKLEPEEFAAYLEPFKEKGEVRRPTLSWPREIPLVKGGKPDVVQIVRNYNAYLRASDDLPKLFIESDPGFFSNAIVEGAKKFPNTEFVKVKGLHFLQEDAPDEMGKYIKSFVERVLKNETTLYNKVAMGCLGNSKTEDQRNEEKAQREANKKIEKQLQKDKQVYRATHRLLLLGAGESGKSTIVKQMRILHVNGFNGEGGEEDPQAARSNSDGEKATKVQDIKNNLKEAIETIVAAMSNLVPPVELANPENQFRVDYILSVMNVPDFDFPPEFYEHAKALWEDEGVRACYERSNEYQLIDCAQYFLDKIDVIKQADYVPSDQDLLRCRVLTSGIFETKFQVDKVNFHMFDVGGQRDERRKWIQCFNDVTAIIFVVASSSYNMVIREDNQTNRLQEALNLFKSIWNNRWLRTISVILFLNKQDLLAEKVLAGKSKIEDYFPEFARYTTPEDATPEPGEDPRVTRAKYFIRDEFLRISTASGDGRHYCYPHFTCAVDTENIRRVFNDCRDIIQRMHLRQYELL
Experiment [4] addresses T4, GLP1R-L-G (human GLP-1 receptor) (Homo sapiens, UniProt P43220).
T4 construct: ID; expressed in transfected cells; host or cells: HEK cells, transient
In words: BRET assay, HEK cells transiently co-transfected with GLP1R-L-G and a Gγ construct. The class given is cell-based. The note with it: cells coexpressing GLP1R-L-G and the Gγ construct, exposed to GLP-1.

The target of experiment [5] is T5, GIPR-L-G (human GIP receptor) (Homo sapiens, UniProt P48546).
T5 construct: ID; NOs; expressed in transfected cells; host or cells: HEK cells, transient
In words: BRET assay, HEK cells transiently co-transfected with GIPR-L-G and a Gγ construct. It is filed as cell-based. As to conditions: cells coexpressing GIPR-L-G and the Gγ construct, exposed to GIP.

“Also recorded” adds a separate entry of the source.

T2 sequence (P08173 with tags, fused parts or gaps): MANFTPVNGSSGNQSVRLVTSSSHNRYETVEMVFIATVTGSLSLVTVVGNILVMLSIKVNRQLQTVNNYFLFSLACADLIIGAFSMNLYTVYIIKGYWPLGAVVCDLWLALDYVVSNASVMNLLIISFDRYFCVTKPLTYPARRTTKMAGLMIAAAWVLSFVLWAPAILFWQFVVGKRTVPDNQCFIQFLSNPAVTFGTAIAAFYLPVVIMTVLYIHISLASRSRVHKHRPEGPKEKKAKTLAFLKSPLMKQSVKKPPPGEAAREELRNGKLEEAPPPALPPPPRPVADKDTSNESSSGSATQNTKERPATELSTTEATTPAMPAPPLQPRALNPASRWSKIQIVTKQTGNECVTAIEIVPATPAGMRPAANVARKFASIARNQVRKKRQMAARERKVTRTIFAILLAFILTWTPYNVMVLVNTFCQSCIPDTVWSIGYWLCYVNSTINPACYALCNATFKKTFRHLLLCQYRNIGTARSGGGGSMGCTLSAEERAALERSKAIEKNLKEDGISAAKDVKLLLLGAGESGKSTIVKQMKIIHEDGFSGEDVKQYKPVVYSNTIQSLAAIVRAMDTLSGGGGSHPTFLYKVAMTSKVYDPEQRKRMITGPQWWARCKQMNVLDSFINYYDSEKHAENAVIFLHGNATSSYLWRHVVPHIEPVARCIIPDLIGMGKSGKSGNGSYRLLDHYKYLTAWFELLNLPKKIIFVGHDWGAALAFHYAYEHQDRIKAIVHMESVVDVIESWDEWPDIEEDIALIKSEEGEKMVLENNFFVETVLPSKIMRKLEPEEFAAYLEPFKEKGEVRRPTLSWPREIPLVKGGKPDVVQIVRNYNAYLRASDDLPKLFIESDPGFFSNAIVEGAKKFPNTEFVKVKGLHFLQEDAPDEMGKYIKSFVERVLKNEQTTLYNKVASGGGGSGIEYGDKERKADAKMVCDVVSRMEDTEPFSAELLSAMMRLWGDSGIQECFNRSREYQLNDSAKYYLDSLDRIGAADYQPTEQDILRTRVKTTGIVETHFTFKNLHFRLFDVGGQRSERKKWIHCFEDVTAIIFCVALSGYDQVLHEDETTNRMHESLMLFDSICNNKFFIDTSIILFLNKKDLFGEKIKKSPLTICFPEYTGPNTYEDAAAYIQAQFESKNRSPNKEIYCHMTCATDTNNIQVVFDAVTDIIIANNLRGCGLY
Method for chimeric GIPR: 5 or 10 minutes after the addition of coelenterazine H to the cells, the read plate is placed in the FLIPR tetra and the measurement begins.
Finally, a three-addition protocol can also be run on the FLIPR tetra, containing three compound plates, of which the first one usually contains different candidate agents, the second one an agonist at its EC20 and the third one an agonist at its EC80, so that a screen for both positive and negative allosteric modulators can be run at the same time.
The camera is adjusted in such a way that the gain is set to a maximum of 28,000× and the shutters are opened 100%. The signal captured is regulated by adjusting the exposure time to 0.1 to 3 seconds ideally resulting of a signal between 30,000-60,000 RLU. The read interval (emission filter 1, emission filter 2) is adjusted to the minimal value that results from the addition of the two exposure times (=2×0.1 to 3 seconds) plus the time needed to move the filters from position 1 to position 2 (0.3 sec), resulting in a maximal read frequency of 0.5 seconds (2 Hz).
Data on FIG. 6 were obtained by applying a two-addition protocol as described above with respect to FIG. 4, with the main differences being the final concentration of coelenterazine H of 6 μM, the exposure time in both channels of 1.5 seconds and the read interval of 3.3 seconds, as well as the presence of 0.2% BSA in the HBSS++ buffer for diluting peptidic ligands. […] The effects of the ligands were read for another 180 reads. Area under curve of blue/yellow ratio from count 31 to the end of the measurement was taken for the analysis and plotted against ligand concentration for the construction of the graph in FIG. 6.

For the compound `CCNC(=O)[C@H]1O[C@@H](n2cnc3c(N)ncnc32)[C@H](O)[C@@H]1O` [NECA, 5′-N-ethylcarboxamidoadenosine], the “activation of the chimeric GIPR (BRET)” value on chimeric GIPR is given as “lack of activation”. The “activation of the chimeric M4R (BRET)” value at chimeric M4R (RGLG-2) is “lack of activation”. Moreover, the “activation of endogenously expressed receptors, cAMP accumulation” value (shortened to “activation of endogenously”) in experiment [1] is recorded as “activated; also recorded: increase in cAMP”.

As to `Nc1c[n+](N2CCOCC2)no1.[Cl-]` [SIN-1 chloride], at chimeric M4R (RGLG-2), the “Invention assay % stim” value is −1.3%, the “Invention assay % enh” value amounted to 3.6% and the “Invention assay % inh” value came to 6.6%. Besides, at M4R, the “Calcium-based assay % stim” value is reported as 5.1%, the “Calcium-based assay % enh” value is 19.4% and the “Calcium-based assay % inh” value turned out to be 17.1%.

On to `O=c1ccn([C@@H]2O[C@H](COP(=O)(O)OP(=O)(O)OP(=O)(O)O)[C@@H](O)[C@H]2O)c(=O)[nH]1` [UTP, uridine-5′-triphosphate], for which the “activation of the chimeric GIPR (BRET)” value at chimeric GIPR is reported as “lack of activation”. In addition, the “activation of endogenously” value in experiment [1] is reported as “activated; also recorded: increase in cAMP”.

`C[N+](C)(C)CCOC(N)=O` [carbachol]: on chimeric GIPR, the “activation of the chimeric GIPR (BRET)” value was “lack of activation”. At chimeric M4R (RGLG-2), the “activation of the chimeric M4R (BRET)” value was “activation”. The “activation of endogenously” value in experiment [1] is given as “activated; also recorded: increase in cAMP”.

As to `CC(C)NCC(O)c1ccc(O)c(O)c1` (stereo not drawn) [isoproterenol], the “activation of the chimeric GIPR (BRET)” value on chimeric GIPR is on record as “lack of activation”. Also, the “activation of the chimeric M4R (BRET)” value at chimeric M4R (RGLG-2) was “lack of activation”. Further, the “activation of endogenously” value in experiment [1] was “activated; also recorded: increase in cAMP”.

For AG 10, at chimeric M4R (RGLG-2), the “Invention assay % stim” value is −13.0%, the “Invention assay % enh” value was −0.1% and the “Invention assay % inh” value amounted to 8.6%. Besides, on M4R, the “Calcium-based assay % stim” value came to 2.3%, the “Calcium-based assay % enh” value came out at 3.8% and the “Calcium-based assay % inh” value is 41.6%.

Consider “CRF: Corticotropin releasing factor, ligand of a receptor endogenously expressed in HEK cells”, for which, in the experiment with chimeric GIPR, the “activation of the chimeric GIPR (BRET)” value is “lack of activation”. For the same compound, the “activation of the chimeric M4R (BRET)” value with chimeric M4R (RGLG-2) is reported as “lack of activation”. In addition, the “activation of endogenously” value in experiment [1] is “increase in cAMP”; in experiment [1] (listed as Corticotropin releasing factor), “activated”.

In the case of “GIP (from UniProt P09681 52-93) (peptide)”, in experiment [2], the EC50 (GIP), BRET receptor activation; cells co-expressing FP-Gγ9 was found to be 0.3 nM; the EC50 (GIP), BRET receptor activation; cells co-expressing FP-Gγ11 was 0.4 nM; the EC50 (GIP), BRET receptor activation; cells co-expressing FP-Gγ13 came to 0.3 nM; the EC50 (GIP), BRET receptor activation; cells co-expressing Gγ5-FP came to 5.5 nM. Also, in experiment [2], the EC50 (GIP), BRET receptor activation; cells co-expressing Gγ9-FP turned out to be 1.4 nM; the EC50 (GIP), BRET receptor activation; cells co-expressing Gγ10-FP amounted to 8.9 nM; the EC50 (GIP), BRET receptor activation; cells co-expressing Gγ11-FP was 1.6 nM; the EC50 (GIP), BRET receptor activation; cells co-expressing Gγ13-FP is 0.6 nM.

As for “GLP-1 (from UniProt P01275 21-180) (peptide)”, in experiment [3], the EC50 (GLP-1), BRET receptor activation; cells co-expressing FP-Gγ1 was 1.1 nM; the EC50 (GLP-1), BRET receptor activation; cells co-expressing FP-Gγ2 worked out at 0.7 nM; the EC50 (GLP-1), BRET receptor activation; cells co-expressing FP-Gγ3 was found to be 0.3 nM; the EC50 (GLP-1), BRET receptor activation; cells co-expressing FP-Gγ4 worked out at 1.1 nM. For the same compound, in experiment [3], the EC50 (GLP-1), BRET receptor activation; cells co-expressing FP-Gγ5 stood at 0.1 nM; the EC50 (GLP-1), BRET receptor activation; cells co-expressing FP-Gγ7 is 0.4 nM; the EC50 (GLP-1), BRET receptor activation; cells co-expressing FP-Gγ8 stood at 1.4 nM; the EC50 (GLP-1), BRET receptor activation; cells co-expressing FP-Gγ9 turned out to be 0.4 nM. In experiment [3], this compound gave an EC50 (GLP-1), BRET receptor activation; cells co-expressing FP-Gγ10 of 0.3 nM; an EC50 (GLP-1), BRET receptor activation; cells co-expressing FP-Gγ11 of 0.7 nM; an EC50 (GLP-1), BRET receptor activation; cells co-expressing FP-Gγ12 of 0.3 nM; an EC50 (GLP-1), BRET receptor activation; cells co-expressing FP-Gγ13 of 0.4 nM. In experiment [3], this compound yielded an EC50 (GLP-1), BRET receptor activation; cells co-expressing Gγ1-FP of 1.1 nM; an EC50 (GLP-1), BRET receptor activation; cells co-expressing Gγ2-FP of 3 nM; an EC50 (GLP-1), BRET receptor activation; cells co-expressing Gγ3-FP of 1.5 nM; an EC50 (GLP-1), BRET receptor activation; cells co-expressing Gγ4-FP of 4.3 nM. For the same compound, in experiment [3], the EC50 (GLP-1), BRET receptor activation; cells co-expressing Gγ7-FP turned out to be 5.2 nM; the EC50 (GLP-1), BRET receptor activation; cells co-expressing Gγ8-FP worked out at 2.3 nM; the EC50 (GLP-1), BRET receptor activation; cells co-expressing Gγ9-FP amounted to 1.7 nM; the EC50 (GLP-1), BRET receptor activation; cells co-expressing Gγ10-FP is 9.2 nM. For the same compound, in experiment [3], the EC50 (GLP-1), BRET receptor activation; cells co-expressing Gγ11-FP came to 3.1 nM; the EC50 (GLP-1), BRET receptor activation; cells co-expressing Gγ12-FP came to 3.1 nM; the EC50 (GLP-1), BRET receptor activation; cells co-expressing Gγ13-FP worked out at 1 nM.

For “Gγ9-FP: fusion protein of human G-protein gamma9 and yellow fluorescent protein YPet, SEQ. ID. NOs. 5, 6”, the HTS compat. entry in experiment [4] and in experiment [5] was “+” throughout.

As for Thapsigargin, at chimeric M4R (RGLG-2), the “Invention assay % stim” value is listed as −0.7%, the “Invention assay % enh” value is −4.2% and the “Invention assay % inh” value is on record as 10.8%. Moreover, at M4R, the “Calcium-based assay % stim” value worked out at 129.5%, the “Calcium-based assay % enh” value was determined as 49.8% and the “Calcium-based assay % inh” value was determined as 11.6%.

Consider “calcitonin: ligand of a receptor endogenously expressed in HEK cells”, for which the “activation of the chimeric GIPR (BRET)” value in the experiment with chimeric GIPR is “lack of activation”. The “activation of the chimeric M4R (BRET)” value in the experiment with chimeric M4R (RGLG-2) is on record as “lack of activation”. Moreover, the “activation of endogenously” value in experiment [1] is reported as “activated; also recorded: increase in cAMP”.

The values are drawn from US20130035256A1, “Chimeric Polypeptides Useful in Proximal and Dynamic High-Throughput Screening Methods” (ADDEX PHARMA SA, priority 2010, published 2013).
